Legend:
[1] = tested on: HfqH6 (Ec-HfqHis6) (Escherichia coli); assay: MST; conditions: Hill coefficient 4.0; concentration calculated with 1 kb average length; MST: 50 mM Tris-HCl pH 7.6, 50 mM NH4Cl, 1 mM EDTA, 0.1% Triton X100, 5% glycerol; room temperature; 100 nM labelled HfqH6. Total E. coli RNA (EC50 3.2e-7 M …)
Ec-HfqHis6 (purified) [2] = target: T1, Ec-HfqHis6 (purified) (E. coli, UniProt P0A6X3 1-102); assay: MST; as the MST without RNA, but in the presence of E. coli total RNA; apparent affinity; conditions: both partners purified
T1 construct: In MST labelled with a fluorescent dye (Protein Labeling Kit RED-NHS); also called HfqH6; purified Hfq

Ec-HfqHis6 (purified) [3] = target: T1, Ec-HfqHis6 (purified); assay: MST; one partner labelled (RED-NHS) and constant (HfqH6 100 nM), the other titrated; standard buffer (50 mM Tris-HCl pH7.6, 50 mM NH4Cl, 1 mM EDTA, 0.1% Triton X100, 5% glycerol); room temperature; Hill model; without RNA; conditions: both partners purified

T1 sequence (P0A6X3 whole entry): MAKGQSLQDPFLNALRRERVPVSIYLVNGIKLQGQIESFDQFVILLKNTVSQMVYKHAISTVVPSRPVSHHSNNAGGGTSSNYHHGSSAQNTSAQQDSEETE

poly(A) gave a K half [1] of 600 nM.

B1: Poly(A)polymerase, PAP (purified) (natural protein, E. coli, UniProt P0ABF1 11-465, looked up)
chain: KVLSREESEAEQAVARPQVTVIPREQHAISRKDISENALKVMYRLNKAGYEAWLVGGGVRDLLLGKKPKDFDVTTNATPEQVRKLFRNCRLVGRRFRLAHVMFGPEIIEVATFRGHHEGNVSDRTTSQRGQNGMLLRDNIFGSIEEDAQRRDFTINSLYYSVADFTVRDYVGGMKDLKDGVIRLIGNPETRYREDPVRMLRAVRFAAKLGMRISPETAEPIPRLATLLNDIPPARLFEESLKLLQAGYGYETYKLLCEYHLFQPLFPTITRYFTENGDSPMERIIEQVLKNTDTRIHNDMRVNPAFLFAAMFWYPLLETAQKIAQESGLTYHDAFALAMNDVLDEACRSLAIPKRLTTLTRDIWQLQLRMSRRQGKRAWKLLEHPKFRAAYDLLALRAEVERNAELQRLVKWWGEFQVSAPPDQKGMLNELDEEPSPRRRTRRPRKRAPRREGTA
notes: Poly(A) polymerase I, E. coli
In the case of B1, the “fold decrease of the apparent affinity in the presence of total RNA” value (Ec-HfqHis6 (purified) [2]) is reported as roughly 10 fold and the EC50 (Ec-HfqHis6 (purified) [3]) is reported as less than 10 µM.

— article PMC6773851, “Identification of protein-protein and ribonucleoprotein complexes containing Hfq” (Scientific Reports, 2019)
